Laboratory results taken from IntAct's records for PubMed 21858148.

Assays:
apc_human APC [1] = biological target: apc_human APC (UniProt P25054)
apc_human APC [2] = biological target: apc_human APC (UniProt P25054); remark: listed apart in the source

Chain of Disks large homolog 1 (Homo sapiens) (Q12959 whole entry, looked up, stated change not applied): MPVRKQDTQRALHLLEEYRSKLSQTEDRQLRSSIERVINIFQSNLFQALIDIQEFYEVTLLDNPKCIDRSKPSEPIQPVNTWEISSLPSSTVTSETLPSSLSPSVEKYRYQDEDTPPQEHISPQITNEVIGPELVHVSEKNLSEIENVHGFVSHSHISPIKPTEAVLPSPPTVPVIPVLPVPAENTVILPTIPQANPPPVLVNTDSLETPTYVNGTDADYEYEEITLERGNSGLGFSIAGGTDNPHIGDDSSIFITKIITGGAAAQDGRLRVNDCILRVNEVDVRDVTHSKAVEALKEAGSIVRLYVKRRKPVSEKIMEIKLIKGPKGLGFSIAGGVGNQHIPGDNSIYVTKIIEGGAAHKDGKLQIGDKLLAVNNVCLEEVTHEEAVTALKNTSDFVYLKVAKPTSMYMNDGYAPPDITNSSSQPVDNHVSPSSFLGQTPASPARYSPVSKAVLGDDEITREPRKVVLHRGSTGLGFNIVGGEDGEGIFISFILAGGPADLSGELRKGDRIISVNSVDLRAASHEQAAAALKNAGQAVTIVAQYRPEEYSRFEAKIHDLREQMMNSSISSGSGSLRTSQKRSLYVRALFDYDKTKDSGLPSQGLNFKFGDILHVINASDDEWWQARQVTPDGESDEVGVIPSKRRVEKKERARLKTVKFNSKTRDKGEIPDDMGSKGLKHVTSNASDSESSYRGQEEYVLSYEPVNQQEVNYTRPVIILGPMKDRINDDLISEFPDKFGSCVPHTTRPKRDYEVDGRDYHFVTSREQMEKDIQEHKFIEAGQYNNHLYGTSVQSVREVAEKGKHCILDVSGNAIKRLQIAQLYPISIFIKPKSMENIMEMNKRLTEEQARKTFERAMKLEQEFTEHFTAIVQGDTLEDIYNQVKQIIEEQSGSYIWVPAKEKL
Chain of apc_human APC (P25054 whole entry): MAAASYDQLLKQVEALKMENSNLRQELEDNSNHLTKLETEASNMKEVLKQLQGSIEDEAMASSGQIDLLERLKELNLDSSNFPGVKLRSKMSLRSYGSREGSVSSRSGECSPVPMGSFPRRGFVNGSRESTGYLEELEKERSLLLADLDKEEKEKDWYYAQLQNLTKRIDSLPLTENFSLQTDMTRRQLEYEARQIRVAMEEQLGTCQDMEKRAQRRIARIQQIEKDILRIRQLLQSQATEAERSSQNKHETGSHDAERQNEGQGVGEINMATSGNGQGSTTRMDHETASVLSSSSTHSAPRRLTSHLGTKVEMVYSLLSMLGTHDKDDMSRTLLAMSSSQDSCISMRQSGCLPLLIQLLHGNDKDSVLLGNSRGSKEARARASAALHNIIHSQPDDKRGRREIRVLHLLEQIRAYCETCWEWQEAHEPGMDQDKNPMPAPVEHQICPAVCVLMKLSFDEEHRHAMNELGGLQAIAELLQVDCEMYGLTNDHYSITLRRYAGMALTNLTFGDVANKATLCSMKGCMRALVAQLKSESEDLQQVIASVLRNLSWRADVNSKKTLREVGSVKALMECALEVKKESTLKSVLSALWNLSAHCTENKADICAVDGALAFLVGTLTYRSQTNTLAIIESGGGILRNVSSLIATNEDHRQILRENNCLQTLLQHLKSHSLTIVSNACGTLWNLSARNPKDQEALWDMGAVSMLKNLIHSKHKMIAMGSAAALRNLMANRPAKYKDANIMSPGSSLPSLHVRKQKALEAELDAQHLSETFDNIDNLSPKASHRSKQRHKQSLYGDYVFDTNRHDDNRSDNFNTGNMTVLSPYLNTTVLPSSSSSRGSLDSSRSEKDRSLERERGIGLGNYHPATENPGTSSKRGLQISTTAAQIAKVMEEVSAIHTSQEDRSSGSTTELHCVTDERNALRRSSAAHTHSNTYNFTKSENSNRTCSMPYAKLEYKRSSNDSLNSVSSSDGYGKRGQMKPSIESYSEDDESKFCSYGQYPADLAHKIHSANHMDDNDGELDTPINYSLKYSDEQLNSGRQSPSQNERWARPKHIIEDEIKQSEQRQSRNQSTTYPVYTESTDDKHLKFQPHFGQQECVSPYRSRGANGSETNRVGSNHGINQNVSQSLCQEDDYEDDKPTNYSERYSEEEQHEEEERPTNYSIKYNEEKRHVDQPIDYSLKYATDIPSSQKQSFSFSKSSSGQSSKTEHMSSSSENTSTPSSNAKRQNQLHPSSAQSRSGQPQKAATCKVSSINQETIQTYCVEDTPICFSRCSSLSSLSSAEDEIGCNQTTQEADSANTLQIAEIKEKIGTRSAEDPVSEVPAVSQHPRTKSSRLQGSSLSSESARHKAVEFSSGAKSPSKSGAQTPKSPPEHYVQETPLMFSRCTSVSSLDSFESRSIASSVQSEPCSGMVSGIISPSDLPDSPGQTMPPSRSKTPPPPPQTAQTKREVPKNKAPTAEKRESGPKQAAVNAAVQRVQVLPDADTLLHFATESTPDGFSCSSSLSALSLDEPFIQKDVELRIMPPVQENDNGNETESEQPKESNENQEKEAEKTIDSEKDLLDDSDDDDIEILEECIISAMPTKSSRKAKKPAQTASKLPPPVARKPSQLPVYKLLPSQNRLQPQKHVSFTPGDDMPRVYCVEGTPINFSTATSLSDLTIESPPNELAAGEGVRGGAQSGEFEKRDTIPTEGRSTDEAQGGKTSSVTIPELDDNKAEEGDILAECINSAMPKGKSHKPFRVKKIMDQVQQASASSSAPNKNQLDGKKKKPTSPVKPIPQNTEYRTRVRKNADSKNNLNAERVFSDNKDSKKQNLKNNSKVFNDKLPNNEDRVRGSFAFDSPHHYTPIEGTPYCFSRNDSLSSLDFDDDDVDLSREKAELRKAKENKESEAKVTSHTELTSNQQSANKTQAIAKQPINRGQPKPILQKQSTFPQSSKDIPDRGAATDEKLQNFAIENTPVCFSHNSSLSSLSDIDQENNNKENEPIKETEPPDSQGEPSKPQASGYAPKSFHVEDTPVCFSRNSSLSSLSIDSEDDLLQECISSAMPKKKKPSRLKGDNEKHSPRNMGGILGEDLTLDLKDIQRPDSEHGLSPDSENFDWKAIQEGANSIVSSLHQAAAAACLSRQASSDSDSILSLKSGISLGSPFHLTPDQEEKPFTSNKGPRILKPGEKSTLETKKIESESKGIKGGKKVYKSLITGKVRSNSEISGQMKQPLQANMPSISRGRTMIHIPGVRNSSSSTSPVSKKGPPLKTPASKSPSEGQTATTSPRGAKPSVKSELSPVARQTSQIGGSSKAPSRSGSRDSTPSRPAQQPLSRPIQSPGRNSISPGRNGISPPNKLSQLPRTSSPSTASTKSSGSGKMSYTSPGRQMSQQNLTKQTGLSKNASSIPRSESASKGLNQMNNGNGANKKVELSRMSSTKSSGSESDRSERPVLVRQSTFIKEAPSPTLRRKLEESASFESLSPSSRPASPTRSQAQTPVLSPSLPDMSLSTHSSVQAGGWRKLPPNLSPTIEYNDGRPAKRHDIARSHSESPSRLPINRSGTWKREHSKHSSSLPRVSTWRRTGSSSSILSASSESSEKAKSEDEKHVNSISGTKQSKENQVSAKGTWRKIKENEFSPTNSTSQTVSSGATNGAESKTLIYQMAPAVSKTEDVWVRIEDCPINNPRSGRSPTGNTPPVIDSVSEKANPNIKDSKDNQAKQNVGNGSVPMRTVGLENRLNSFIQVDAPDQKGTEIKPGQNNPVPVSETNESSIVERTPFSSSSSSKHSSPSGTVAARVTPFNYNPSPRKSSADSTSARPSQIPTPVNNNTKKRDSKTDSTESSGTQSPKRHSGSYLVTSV

effect of a mutation on the interaction (apc_human APC [1]): decreasing interaction strength
effect of a mutation on the interaction (apc_human APC [2]): disrupting interaction strength
Substance: Disks large homolog 1 (Homo sapiens) (from UniProt Q12959) Q340P
